The values below come from patent US20090082410A1.

The assay deals with angiotensin II type 1A receptor. Kind of assay: cell-based or functional assay.

arrestin-GFP had an arrestinGFP translocation response (Fgrains, INCell Analyzer), U2OS cells, 1:4 dilution of GRK2-C20 baculovirus, no ligand of 305 Fgrains; an arrestinGFP translocation response (Fgrains, INCell Analyzer), U2OS cells, 1:256 dilution of GRK2-C20 baculovirus, no ligand of 77 Fgrains; an arrestinGFP translocation response (Fgrains, INCell Analyzer), U2OS cells, no added GRK2-C20, no ligand of 18 Fgrains.
